Experimental findings from patent US20250215080A1 (published 2025) are described below.

As a reminder, the EC50 is the concentration that produces a half-maximal response. High values mean a need for much substance, low ones an effect from little substance.

Experiment [1] concerns the target T1, human TREM2 (hTREM2), expressed on cells (human, UniProt Q9NZC2 19-230).
T1 sequence: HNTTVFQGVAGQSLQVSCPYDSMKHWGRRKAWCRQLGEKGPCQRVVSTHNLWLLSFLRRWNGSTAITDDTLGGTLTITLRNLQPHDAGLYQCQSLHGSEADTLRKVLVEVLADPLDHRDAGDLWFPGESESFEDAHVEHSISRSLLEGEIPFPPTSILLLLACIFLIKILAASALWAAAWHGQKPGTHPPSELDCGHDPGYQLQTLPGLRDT
As to the kind of experiment: cell-based or functional assay.

Experiment [2] addresses T2, hTREM2 ECD (19-174)-hFc (human, UniProt Q9NZC2 19-174, biotinylated in the -bio form).
T2 construct: Plain and biotinylated forms are kept as one molecule; also called hTREM2 ECD (19-174)-hFc-bio; hTREM2 Fc
T2 sequence: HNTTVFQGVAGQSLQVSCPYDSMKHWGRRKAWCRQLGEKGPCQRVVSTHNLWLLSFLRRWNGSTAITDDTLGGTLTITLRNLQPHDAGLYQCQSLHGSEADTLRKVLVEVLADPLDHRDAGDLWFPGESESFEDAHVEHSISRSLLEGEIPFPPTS
In words: SPR, label free kinetics. On the procedure:
(§1) For a precise assessment of the binding affinities of the antibodies affinity-determination by measuring kinetic rate constants was performed by SPR. In addition a comparison to cynomolgus TREM2 was performed (Table 21).

The target in experiment [3] is T3, cyTREM2 ECD (19-174)-APP-Avi (cynomolgus, UniProt A0A2K5UY34 49-204).
T3 construct: range 19-174
T3 sequence: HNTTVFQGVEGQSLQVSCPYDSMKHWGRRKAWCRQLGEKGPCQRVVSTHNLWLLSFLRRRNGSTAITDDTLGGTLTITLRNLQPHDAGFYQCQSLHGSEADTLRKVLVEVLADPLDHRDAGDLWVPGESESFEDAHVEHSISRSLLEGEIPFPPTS
As to the kind of experiment: SPR, label free kinetics. On the procedure: as §1
(In general: Surface plasmon resonance follows binding to a sensor surface in real time, without labels.)

Experiment [4] concerns the target T1, human TREM2 (hTREM2), expressed on cells. As to the kind of experiment: FACS, hM2A, median of 4 donors. On the procedure:
(§2) To determine cellular EC₅₀ of antibodies on hM2A, CHO-hTREM2 or CHO-cynoTREM2, cells were treated o/n with 5 μM DPC333 (ADAM10 and 17 inhibitor; Qian, M et al. Drug Metab Dispos, 2007. 35:p. 1916-1925). Macrophages were detached with accutase (Biolegend, 423201) followed by resuspension in FACS buffer (PBS, 2% FBS, 0.5 mM EDTA, pH 8.0) supplemented with 50 μg/ml Fc block (BD, 564220) and incubated for at least 20 min on ice. Next cells were stained for 1 h at 4° C. in the same buffer with a broad concentration range of the different anti-TREM2 antibodies followed by a washing step with PBS (250 g, 4° C., 3 min). […] After a second washing step with PBS (250 g, 4° C., 3 min), cells were fixed with fixation buffer (Biolegend, 420801) for 15 min at RT, washed again and fluorescence was assessed using a BD FACS Canto II (BD, V96300323) or a FacsCalibur flow cytometer. Median fluorescence intensities corresponding to the degree of TREM2 antibody bound to cells were evaluated using FlowJo software (Millipore INC).
(§3) Individual values for each donor are given.
(In flow cytometry, cells or beads pass a laser one at a time.)

Experiment [5] shares this target. As to the kind of experiment: FACS, hM2A, donor 4. On the procedure:
as §2, §3

The target is the same in experiment [6]. In words: FACS, hM2A macrophages. As to the method:
as §2, §3

The target in experiment [7] is T4, cynomolgus TREM2 expressed on CHO cells (cynomolgus, UniProt A0A2K5UY34 49-260).
T4 construct: whole, on cells; also called CHO-cyTREM2; CHO-cynoTREM2
T4 sequence: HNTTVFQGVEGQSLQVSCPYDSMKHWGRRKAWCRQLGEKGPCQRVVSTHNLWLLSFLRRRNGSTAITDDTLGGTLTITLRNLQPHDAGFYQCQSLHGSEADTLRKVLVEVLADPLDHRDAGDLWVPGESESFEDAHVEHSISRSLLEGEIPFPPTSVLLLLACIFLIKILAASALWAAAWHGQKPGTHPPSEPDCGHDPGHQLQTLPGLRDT
In words: FACS, CHO-cyTREM2 cells. On the procedure: as §2

The target in experiment [8] is T5, hTREM2 ECD (19-174) (human, UniProt Q9NZC2 19-174).
T5 construct: Antigen in solution of the SET experiments; also called human TREM2 (SET antigen)
T5 sequence: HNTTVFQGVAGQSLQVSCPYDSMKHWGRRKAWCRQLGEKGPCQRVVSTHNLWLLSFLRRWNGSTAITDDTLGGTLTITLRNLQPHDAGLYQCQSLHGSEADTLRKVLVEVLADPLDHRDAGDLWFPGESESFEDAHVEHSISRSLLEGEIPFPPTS
As to the kind of experiment: SET screening.
Protocol: Serial dilutions of unlabeled antigen were prepared, starting with a concentration at least 10 times higher than the expected KD. Wells without antigen were used to determine Bmax values; wells containing only assay buffer were used to determine background.
The data was evaluated with XLfit (IDBS) software applying customized fitting models. […] A constant amount of diluted BEL extract (containing borate buffer, EDTA and lysozyme) was equilibrated over night with different concentrations of antigen.

The target of experiment [9] is T1, human TREM2 (hTREM2), expressed on cells. In words: cell-based or functional assay. This is another data set of the same source.
For experiment [10], the target named is proteins of the protein panel profiling (3P), 25 in total. As to the kind of experiment: protein panel profiling (3P), ECL.
For experiment [11], the target named is T1, human TREM2 (hTREM2), expressed on cells. In words: FACS, hM2A, donor 3. As to the method:
as §2, §3

Experiment [12] addresses T5, hTREM2 ECD (19-174). As to the kind of experiment: SET.
Experiment [13] addresses T6, cynomolgus TREM2 (construct not stated) (cynomolgus, UniProt A0A2K5UY34 49-204).
T6 construct: also called cyno TREM2
T6 sequence: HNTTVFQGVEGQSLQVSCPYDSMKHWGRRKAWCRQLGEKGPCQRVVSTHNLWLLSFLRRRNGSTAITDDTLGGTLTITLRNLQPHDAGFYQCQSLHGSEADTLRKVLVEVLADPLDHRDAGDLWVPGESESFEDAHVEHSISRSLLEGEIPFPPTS
In words: SET.

In experiment [14] the target is T1, human TREM2 (hTREM2), expressed on cells. In words: FACS, CHO-hTREM2 cells. As to the method: as §2
Experiment [15] has the same target. As to the kind of experiment: FACS, hM2A, donor 1. On the procedure: as §2, §3
Experiment [16] has the same target. As to the kind of experiment: FACS, hM2A, donor 2. As to the method:
as §2, §3

Experiment [17] concerns the target T7, hTREM2 IgSF-hTREM1 stalk-hFc (human, UniProt Q9NP99 135-205, limits assumed, biotinylated in the -bio form).
T7 construct: domain: stalk region; also called hTREM2 IgSF-T1 stalk-hFc-bio; hTREM2 IgSF-hTREM1 stalk-hFc-bio
T7 sequence: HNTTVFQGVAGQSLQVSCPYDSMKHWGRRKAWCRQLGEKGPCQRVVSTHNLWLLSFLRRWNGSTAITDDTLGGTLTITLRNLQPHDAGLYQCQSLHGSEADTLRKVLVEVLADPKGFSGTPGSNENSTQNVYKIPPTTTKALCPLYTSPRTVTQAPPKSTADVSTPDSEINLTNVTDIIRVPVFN
As to the kind of experiment: S/BG on recombinant protein.

In experiment [18] the target is T8, cyTREM2 ECD (19-174)-hFc (cynomolgus, UniProt A0A2K5UY34 49-204).
T8 construct: range 19-174; also called cyTREM2-ECD (19-174)-hFc-bio
T8 sequence: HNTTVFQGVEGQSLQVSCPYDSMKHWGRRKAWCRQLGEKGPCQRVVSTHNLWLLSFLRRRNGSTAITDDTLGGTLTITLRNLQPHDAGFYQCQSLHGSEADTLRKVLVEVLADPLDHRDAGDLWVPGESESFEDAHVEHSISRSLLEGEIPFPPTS
In words: S/BG on recombinant protein.

The target in experiment [19] is T2, hTREM2 ECD (19-174)-hFc. In words: S/BG on recombinant protein.
The target in experiment [20] is T1, human TREM2 (hTREM2), expressed on cells. As to the kind of experiment: cell-based or functional assay. The source holds these as a separate data set.
Experiment [21] shares this target. As to the kind of experiment: FACS, hM2A macrophages. The source holds these as a separate data set.
Experiment [22] shares this target. In words: FACS, CHO-hDAP12-hTREM2 cells.
Experiment [23] shares this target. As to the kind of experiment: cell-based or functional assay. This is another data set of the same source.

B1: MOR044698 (antibody, V domains shown)
VH: QVQLVQSGAEVKKPGASVKVSCKASGYTFTGYHMSWVRQAPGQGLEWMGVINPVSGNTVYAQKFQGRVTMTRDTSISTAYMELSRLRSEDTAVYYCARIPSYTYAFDYWGQGTLVTVSS
VL: DIQMTQSPSSLSASVGDRVTITCRASQDISNYLAWYQQKPGKAPKLLIYRASSLQSGVPSRFSGSGSGTDFTLTISSLQPEDFATYYCFQYRHMPSQTFGQGTKVEIK
notes: light chain 26); Human IgG vector of the campaign: IgG1f LALA; Matured from MOR042596; VH1B k1; also called MOR44698
Turning to B1, the “TREM2 activation (fold in RGA)” value in experiment [1] stood at 1 fold. The Kd is 0.046 nM in [2]; 0.039 nM in experiment [3]; less than 0.6 nM in [8]; 0.046 nM in experiment [12]; 0.039 nM in experiment [13]. For the same molecule, the EC50 was 0.56 nM in experiment [4]; 0.56 nM in experiment [5]; less than 2 nM in experiment [6]; 0.46 nM in experiment [7]; 0.55 nM in experiment [11]; 0.2 nM in experiment [14]. Besides, the values for the EC50 in experiment [15] and in experiment [16] were 0.86 nM and 0.55 nM, respectively. Also, the “Internalization compared to parental after 6 h” value in [9] is 1.5 fold of parental. Also, the “Internalization; fold over background after 6 h” value in [9] was 57.1 fold. In experiment [10], the Cumulative binding ratio was less than 150. The S/BG in experiment [17] was more than 20; in experiment [18], more than 5; in experiment [19], more than 5. Besides, the “Fold TREM2 cell surface increase compared to isotype (hM2A, 100 nM o/n)” value in experiment [20] was found to be 7.9 fold.

B2: MOR044746 (antibody, V domains shown)
VH: QVQLQQSGPGLVKPSQTLSLTCAISGDSVSSSSAAWNWIRQSPSRGLEWLGHIGYRSKWYNEYAVSVKSRITINPDTSKNQFSLQLNSVTPEDTAVYYCARGMYGSVPYKEGYYFDIWGQGTLVTVSS
VL: DIQMTQSPSSLSASVGDRVTITCRASQGISSDLNWYQQKPGKAPKLLIYAASNLQSGVPSRFSGSGSGTDFTLTISSLQPEDFATYYCQQYTDESMTFGQGTKVEIK
notes: light chain 63); Human IgG vector of the campaign: IgG1f LALA; Matured from MOR042493; VH6 k1; also called MOR44746
On to B2, for which the “TREM2 activation (fold in RGA)” value in [1] was determined as 1.3 fold. Also, the Kd in experiment [2] was 0.003 nM; in [3] it was 0.004 nM; in experiment [8] it was less than 0.6 nM; in experiment [12], 0.003 nM; in [13], 0.004 nM. Moreover, the EC50 in experiment [4] was 0.59 nM; in experiment [5] it was 0.64 nM; in experiment [6], less than 2 nM; in experiment [7] it was 0.65 nM; in experiment [11], 0.54 nM; in experiment [14] it was 0.16 nM. The figures for the EC50 in experiment [15] and in experiment [16] were 0.73 nM and 0.54 nM, respectively. Besides, the “Internalization compared to parental after 6 h” value in experiment [9] is 0.7 fold of parental. Besides, the “Internalization; fold over background after 6 h” value in [9] was determined as 33.3 fold. The Cumulative binding ratio in [10] is less than 150. The results for the S/BG in experiment [17], in experiment [18] and in experiment [19] were more than 20, more than 5 and more than 5, respectively. The “Fold TREM2 cell surface increase compared to isotype (hM2A, 100 nM o/n)” value in experiment [20] was determined as 5.1 fold.

B3: MOR041877 (full IgG) (antibody, V domains shown)
VH: QVQLKESGPALVKPTQTLTLTCTFSGFSLSTSGVGVSWIRQPPGKALEWLALIFSDHDKIYSTSLKTRLTISKDTSKNQVVLTMTNMDPVDTATYYCARTLIDRSVYFDYWGQGTLVTVSS
VL: DIVLTQPPSVSGAPGQRVTISCSGSSSNIGHHYVSWYQQLPGTAPKLLIYDNTNRPSGVPDRFSGSKSGTSASLAITGLQAEDEADYYCATWDGLMNSIVFGGGTKLTVLG
Consider B3, for which the EC50 in experiment [21] came out at 0.7 nM; in experiment [22] it was 0.5 nM. For the same molecule, the “RGA in THP-B5 cells (fold increase over BG)” value in experiment [23] amounted to 2.1 fold.
